In article PMC9045250:

Molecular target: no. 14 short peptide of the CD2V extracellular region (147-161) (African swine fever virus (China/2018/AnhuiXCGQ))
Experiment: ELISA
Conditions: remark: other sources report otherwise

Binder | OD450 [OD450]
monoclonal antibody 18A3 against CD2V (antibody, V domains shown) VH: MVKPGASVKISCKASGYSFTSYYIHWVKQRPGQGLEWIGWIFPGSGNTKYNEKFKGKATLTADTSSSTAYMQLSSLTSEDSAVYFCAQTGRVFAYWGQGTTVTVSSK VL: MTQSPSSLSASLGERVSLTCRASQEISGYLSWLQQKPDGTIKRLIYAASTLDSGVPKRFSGSRSGSDYSLTISSLESEDFADYYCLQYASYPWTFGGGTKLESNGE | > 1
monoclonal antibody 13G11 against CD2V (antibody, V domains shown) VH: MIMVQSQESGPDLVKPSQSLSLTCTVTGYSITSGYSWHWIRQFPGNKLEWMGYIHYSGVTNYNPSLKSRISITRDTSKNQFFLQLNSVTTEDTATYYCARAPLYYGNYVWFSYWGQGTTVTVSSK VL: MTCDIELTQSPASLSASVGETVTITCRASGNIHNYLAWYQQKQGKSPQLLVYNAKTLADGVPSRFSGSGSGSQYSLKINSLQPEDFGSYYCQHFWSTPWTFGGGTKLENQTDK | > 1
